The record followed here is article PMC9363500 (Communications Biology, 2022).

First the molecules themselves.
T1: 6×His-FAK KFL_(776–841) (human, UniProt Q05397 776-841, fluorescent label from the NanoTemper His-tag labelling kit (MST, fluorescence anisotropy))
T1 chain: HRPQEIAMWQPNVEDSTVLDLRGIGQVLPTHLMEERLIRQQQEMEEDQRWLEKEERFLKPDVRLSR

T2: FAK KFL 776-841 (Homo sapiens, UniProt Q05397)
T2 chain: T1 chain

B1: MBP–FAK KFL_(776–841) (domain or fragment, human, UniProt Q05397 776-841, looked up)
chain: T1 chain
notes: not shown: MBP, N-terminal, kept
B2: FAK KFL 776-841 (protein)
chain: T1 chain
modifications: not fully specified
B3: 6×His-FAK KFL_(776–841) (domain or fragment, human, UniProt Q05397 776-841, looked up)
chain: {6×His}-HRPQEIAMWQPNVEDSTVLDLRGIGQVLPTHLMEERLIRQQQEMEEDQRWLEKEERFLKPDVRLSR
modifications: also: fluorescent label on His-tag
notes: source: E. coli, purified (nickel column, Superdex 75 SEC); not shown: His6, N-terminal, kept

The target of data set [1] is 6×His–PYK2 KFL_(728–839) (human) (UniProt Q14289). As to the kind of experiment: ITC; 25 °C; 20 mM HEPES pH 7.5, 150 mM NaCl, 2 mM DTT, 5 mM Ca2+; CaM (300 µM) injected into KFL constructs in the cell (30 or 50 µM), or FERM domains (500 µM) injected into CaM (50 µM).
Data set [2] has the same target. Put plainly: ITC; 25 °C; 20 mM HEPES pH 7.5, 150 mM NaCl, 2 mM DTT, 1 mM EGTA; CaM (300 µM) injected into PYK2 KFL728–839 (30 µM). A general note: ITC needs no label: the signal is the heat of the interaction.
Data set [3] addresses B3. As to the kind of experiment: fluorescence polarisation; fluorescence anisotropy; labelled 6×His protein at 50 nM, unlabelled MBP-fused protein serially diluted; 20 mM HEPES, 200 mM NaCl, 1 mM DTT, pH 6.5. Conditions: both partners purified. A general note: Fluorescence polarisation rises when a labelled molecule tumbles more slowly, as on binding a larger partner.
In data set [4] the target is T1, 6×His-FAK KFL_(776–841). Put plainly: FP.
A further data set concerns the target T2, FAK KFL 776-841. As to the kind of experiment: MST (self-association).
Data set [5] deals with the molecule itself. Put plainly: SEC-MALS; Superdex 200; 20 mM HEPES, 200 mM NaCl, 2 mM DTT, pH 6.5 and 7.5; DAWN MALS detector. A general note: SEC sorts molecules by how far they enter the pores of the column.
Data set [6] concerns the molecule itself. Put plainly: MST; labelled 6×His protein at 50 nM, unlabelled protein serially diluted; 20 mM HEPES, 200 mM NaCl, 1 mM DTT, pH 6.5; dimer to monomers.

A word on the stoichiometry N: it is a count of units in the complex or per binding partner. For the molecule “6×His–CaM (recombinant calmodulin) (from UniProt P0DP23 1-149) (natural protein)”, the stoichiometry N in data set [1] and in data set [2] was 1 throughout.

In general, Kd refers to the concentration at which binding is half-saturated. In the case of B1, in the data set with 6×His-FAK KFL_(776–841) [3], the binding result is “binds”. This molecule also showed a dissociation constant (Kd) with 6×His-FAK KFL_(776–841) [4] of 730 nM.

The molecule B2 came in with a dissociation constant (Kd) with FAK KFL 776-841 of 848 nM.

In the case of B3, the “stoichiometry N” value in data set [5] was 2. In data set [6], this molecule registered an equilibrium dissociation constant (Kd) of about 800 nM.
